# In paper PMC9504884, “Functional Interactions of Kluyveromyces lactis Telomerase Reverse Transcriptase with the Three-Way Junction and the Template Domains of Telomerase RNA”:
# T1: klTRBD klEst2 171-422 (Kluyveromyces lactis, UniProt Q6CSS0 171-422)
# T1 sequence: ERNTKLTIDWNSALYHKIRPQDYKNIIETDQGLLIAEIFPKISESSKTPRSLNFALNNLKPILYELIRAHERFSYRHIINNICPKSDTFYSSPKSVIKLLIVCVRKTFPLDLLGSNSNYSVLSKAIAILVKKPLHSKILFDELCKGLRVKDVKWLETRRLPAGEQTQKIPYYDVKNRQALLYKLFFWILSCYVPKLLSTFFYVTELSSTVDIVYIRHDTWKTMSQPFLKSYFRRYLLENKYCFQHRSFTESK
# T2: klEst2 full-length (TERT) (Kluyveromyces lactis, UniProt Q6CSS0 1-861)
# T2 sequence: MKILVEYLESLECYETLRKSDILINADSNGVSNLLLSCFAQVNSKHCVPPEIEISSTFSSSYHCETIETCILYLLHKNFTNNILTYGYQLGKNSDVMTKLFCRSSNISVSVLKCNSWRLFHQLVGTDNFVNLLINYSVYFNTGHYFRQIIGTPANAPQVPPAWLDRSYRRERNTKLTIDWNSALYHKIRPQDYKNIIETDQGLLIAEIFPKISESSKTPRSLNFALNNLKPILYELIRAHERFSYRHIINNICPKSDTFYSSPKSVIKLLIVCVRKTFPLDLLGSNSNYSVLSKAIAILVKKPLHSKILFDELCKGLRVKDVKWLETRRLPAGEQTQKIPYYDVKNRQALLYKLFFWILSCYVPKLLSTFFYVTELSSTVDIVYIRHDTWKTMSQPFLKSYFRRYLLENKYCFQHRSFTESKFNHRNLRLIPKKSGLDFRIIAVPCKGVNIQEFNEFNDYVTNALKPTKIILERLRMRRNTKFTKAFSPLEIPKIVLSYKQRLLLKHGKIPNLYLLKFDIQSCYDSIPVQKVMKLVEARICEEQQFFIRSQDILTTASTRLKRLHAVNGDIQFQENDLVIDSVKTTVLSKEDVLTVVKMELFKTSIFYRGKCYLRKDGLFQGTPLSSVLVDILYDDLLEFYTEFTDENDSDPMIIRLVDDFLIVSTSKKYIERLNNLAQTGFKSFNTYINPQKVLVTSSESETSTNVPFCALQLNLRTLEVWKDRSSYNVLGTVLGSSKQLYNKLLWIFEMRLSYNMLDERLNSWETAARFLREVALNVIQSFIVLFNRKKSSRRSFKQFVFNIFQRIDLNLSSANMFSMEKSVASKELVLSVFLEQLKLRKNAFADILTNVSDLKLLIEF
# T3: klTRBD klEst2 171-404 (Kluyveromyces lactis, UniProt Q6CSS0 171-404)
# T3 sequence: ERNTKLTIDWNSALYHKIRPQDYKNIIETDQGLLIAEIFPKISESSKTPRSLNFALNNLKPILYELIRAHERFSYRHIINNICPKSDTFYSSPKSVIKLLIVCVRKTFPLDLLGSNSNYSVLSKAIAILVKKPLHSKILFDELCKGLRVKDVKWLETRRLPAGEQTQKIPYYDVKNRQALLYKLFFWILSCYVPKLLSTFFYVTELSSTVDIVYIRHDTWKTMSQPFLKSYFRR
# Legend:
# Assay in all cases: EMSA; 1 nM RNA, tRNA competitor; 25 mM Tris-HCl pH 7.5, 50 mM KCl, 1 mM MgCl2, 1 mM DTT, 10% glycerol, 0.1% Triton, 0.5 mg/mL BSA, 1.7 ng/uL yeast tRNA, 1 nM RNA probe; 15 min on ice then 10 min room temperature; gel at 6 C
# klTRBD klEst2 171-422 = target: T1, klTRBD klEst2 171-422; conditions: protein: recombinant; tags: N-terminal His-SUMO, TEV-cleaved; label: 5'-32P when probe; three-way junction
# [1] = target: T2, klEst2 full-length (TERT); conditions: protein: recombinant; tags: expressed in E. coli; His-SUMO tag described for the TRBD constructs, tag of full-length not clearly stated; label: 5'-32P when probe; three-way junction
# klTRBD klEst2 171-404 = target: T3, klTRBD klEst2 171-404; conditions: protein: recombinant; tags: N-terminal His-SUMO, TEV-cleaved; label: 5'-32P when probe; three-way junction
binder,measurement,setting,value
minTWJ (structured_RNA) RNA: GGGUUGUCCUAUGGUGGAUCUUGAAAAGACCCUCGGAAGACAGGGCCACAUCGACGAUCAAUAUUUUGCCGUGAGGCUUAUAUGUCACCAUGGCAUGCAGCCC,binding result,klTRBD klEst2 171-422,no binding
same,binding result,[1],binds
same,binding result,klTRBD klEst2 171-404,no binding
